According to US20200149021, “SYSTEM AND METHOD FOR GENOME EDITING” (INSTITUTE OF ZOOLOGY, CHINESE ACADEMY OF SCIENCES, published 2020):

Target: T1, HkCpf1 (Helcococcus kunzii)
T1 chain: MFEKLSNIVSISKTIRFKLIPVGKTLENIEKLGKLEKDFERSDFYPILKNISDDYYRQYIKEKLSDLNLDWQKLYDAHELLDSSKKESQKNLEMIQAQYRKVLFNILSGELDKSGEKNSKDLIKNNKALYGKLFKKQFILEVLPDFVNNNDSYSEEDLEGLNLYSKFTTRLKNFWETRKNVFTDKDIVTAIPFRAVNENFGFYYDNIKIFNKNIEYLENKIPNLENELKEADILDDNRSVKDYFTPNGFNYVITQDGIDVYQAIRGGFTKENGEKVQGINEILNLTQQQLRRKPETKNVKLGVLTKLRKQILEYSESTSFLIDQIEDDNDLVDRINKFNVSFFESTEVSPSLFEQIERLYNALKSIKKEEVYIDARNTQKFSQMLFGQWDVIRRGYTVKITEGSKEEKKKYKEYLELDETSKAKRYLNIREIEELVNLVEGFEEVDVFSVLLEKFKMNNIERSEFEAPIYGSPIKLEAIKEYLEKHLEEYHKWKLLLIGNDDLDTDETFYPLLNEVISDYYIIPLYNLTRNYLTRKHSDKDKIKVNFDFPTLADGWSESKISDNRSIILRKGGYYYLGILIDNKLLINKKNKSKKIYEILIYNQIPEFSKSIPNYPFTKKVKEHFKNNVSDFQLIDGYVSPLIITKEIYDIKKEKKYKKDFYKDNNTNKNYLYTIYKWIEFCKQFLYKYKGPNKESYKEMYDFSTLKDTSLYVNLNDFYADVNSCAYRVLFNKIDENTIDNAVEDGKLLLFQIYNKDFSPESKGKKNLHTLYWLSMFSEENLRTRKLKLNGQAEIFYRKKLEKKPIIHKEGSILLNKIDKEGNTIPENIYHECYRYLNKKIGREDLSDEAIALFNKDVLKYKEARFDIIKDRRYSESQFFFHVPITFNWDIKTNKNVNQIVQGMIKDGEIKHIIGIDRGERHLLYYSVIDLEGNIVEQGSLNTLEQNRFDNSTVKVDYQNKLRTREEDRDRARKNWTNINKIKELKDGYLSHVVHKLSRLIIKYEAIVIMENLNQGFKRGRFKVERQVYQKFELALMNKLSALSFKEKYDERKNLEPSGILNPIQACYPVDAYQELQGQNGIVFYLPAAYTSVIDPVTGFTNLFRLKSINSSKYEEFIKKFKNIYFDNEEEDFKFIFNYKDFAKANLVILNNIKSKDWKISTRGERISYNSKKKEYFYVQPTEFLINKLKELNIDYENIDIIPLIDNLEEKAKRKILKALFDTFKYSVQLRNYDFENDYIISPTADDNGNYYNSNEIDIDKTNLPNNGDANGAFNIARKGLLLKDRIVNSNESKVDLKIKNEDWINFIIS
Test: cell_activity; PAM TTTC; T7EI
Conditions: tags: HA (2A-eGFP vector)
Experimental: GFP-positive cells were sorted by FACS, lysed with Buffer L+ 1/100V Protease K (Biotool) at 55° C. for 30 min, inactivated at 95° C. for 5 min, and directly used for PCR detection. Appropriate primers were designed near the Cpf1 targeting site, and the amplified product was purified using DNA Clean & Concentrator™-5 kit (ZYMO Research). 200 ng of purified PCR product was added into 1 uL of NEBuffer2 (NEB) and diluted to 10 uL with ddH₂O. Then, heterodimers were formed by re-annealing according to the previously reported method (Li, W., et al., Simultaneous generation and germline transmission of multiple gene mutations in rat using CRISPR-Cas systems. Nat Biotechnol, 2013. 31(8): p. 684-6). The reannealed product was added with 0.3 uL of T7EI endnucelease and 1/10 V NEBuffer2 (NEB), and digested at 37° C. for 1 h 30 min. Genotype analysis was performed by 3% TAE-Gel electrophoresis. Indels were calculated according to the method reported in the previous article (Cong, L., et al., Multiplex genome engineering using CRISPR/Cas systems. Science, 2013. 339(6121): p. 819-23).
The cells were transfected with Cpf1, crRNA31, and crRNA2 plasmids, and it was confirmed by PCR and T7EI analysis that crRNA31 can increase the editing efficiency of five Cpf1s of ArCpf1, BsCpf1, HkCpf1, PrCpf1, and PxCpf1 at the site MeCP2-4 by two folds (FIG. 13B).

B1: crRNA31 MeCP2 site 4 ; Mouse MeCP2 site 4 (ssRNA ; dsDNA)
RNA: AUUUCUACUAUGGUAGAUGUGUCCAACCUUCAGGCAAGGUG
DNA 1: TTTCGTGTCCAACCTTCAGGCAAGGTG
DNA 2: CACCTTGCCTGAAGGTTGGACACGAAA
**Q.** Which editing efficiency does the source give for B1 here?
**A.** The editing efficiency was roughly 2 fold vs crRNA2.
